Measurements published in PMC10699790 (Science Advances, 2023).

How the values were obtained:
[1] = molecular target: HA-Halo-mGluR2 (rat, UniProt P31421 19-872, Halo tag labeled with CA-SS-Alexa-488); test: single-molecule pulldown
[2] = molecular target: HA-Halo-mGluR8 (human, UniProt O00222 34-908, Halo tag labeled with CA-SS-Alexa-488); test: single-molecule pulldown
Sequence of HA-Halo-mGluR8 (O00222 34-908): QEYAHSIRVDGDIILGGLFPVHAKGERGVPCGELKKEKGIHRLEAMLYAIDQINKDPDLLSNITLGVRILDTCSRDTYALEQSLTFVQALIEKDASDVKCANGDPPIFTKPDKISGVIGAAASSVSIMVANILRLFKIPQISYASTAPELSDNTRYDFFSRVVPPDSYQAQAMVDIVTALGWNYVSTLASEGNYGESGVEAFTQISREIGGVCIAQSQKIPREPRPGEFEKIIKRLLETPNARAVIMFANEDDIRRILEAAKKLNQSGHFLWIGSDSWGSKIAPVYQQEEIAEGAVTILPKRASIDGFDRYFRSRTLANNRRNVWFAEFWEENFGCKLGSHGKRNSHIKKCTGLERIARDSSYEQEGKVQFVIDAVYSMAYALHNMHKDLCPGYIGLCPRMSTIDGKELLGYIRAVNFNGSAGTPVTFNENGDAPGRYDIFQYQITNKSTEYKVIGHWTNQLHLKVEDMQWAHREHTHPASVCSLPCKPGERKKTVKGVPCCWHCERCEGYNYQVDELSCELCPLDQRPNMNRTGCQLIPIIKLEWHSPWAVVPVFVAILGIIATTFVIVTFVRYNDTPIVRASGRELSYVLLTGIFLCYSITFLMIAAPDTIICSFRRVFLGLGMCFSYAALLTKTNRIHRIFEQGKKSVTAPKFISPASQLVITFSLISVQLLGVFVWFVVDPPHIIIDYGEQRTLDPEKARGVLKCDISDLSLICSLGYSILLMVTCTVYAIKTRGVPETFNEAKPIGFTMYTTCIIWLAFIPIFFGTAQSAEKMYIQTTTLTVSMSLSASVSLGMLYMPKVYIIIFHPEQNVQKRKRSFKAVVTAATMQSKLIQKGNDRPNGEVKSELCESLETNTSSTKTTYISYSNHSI

Sequence of HA-Halo-mGluR2 (P31421 19-872): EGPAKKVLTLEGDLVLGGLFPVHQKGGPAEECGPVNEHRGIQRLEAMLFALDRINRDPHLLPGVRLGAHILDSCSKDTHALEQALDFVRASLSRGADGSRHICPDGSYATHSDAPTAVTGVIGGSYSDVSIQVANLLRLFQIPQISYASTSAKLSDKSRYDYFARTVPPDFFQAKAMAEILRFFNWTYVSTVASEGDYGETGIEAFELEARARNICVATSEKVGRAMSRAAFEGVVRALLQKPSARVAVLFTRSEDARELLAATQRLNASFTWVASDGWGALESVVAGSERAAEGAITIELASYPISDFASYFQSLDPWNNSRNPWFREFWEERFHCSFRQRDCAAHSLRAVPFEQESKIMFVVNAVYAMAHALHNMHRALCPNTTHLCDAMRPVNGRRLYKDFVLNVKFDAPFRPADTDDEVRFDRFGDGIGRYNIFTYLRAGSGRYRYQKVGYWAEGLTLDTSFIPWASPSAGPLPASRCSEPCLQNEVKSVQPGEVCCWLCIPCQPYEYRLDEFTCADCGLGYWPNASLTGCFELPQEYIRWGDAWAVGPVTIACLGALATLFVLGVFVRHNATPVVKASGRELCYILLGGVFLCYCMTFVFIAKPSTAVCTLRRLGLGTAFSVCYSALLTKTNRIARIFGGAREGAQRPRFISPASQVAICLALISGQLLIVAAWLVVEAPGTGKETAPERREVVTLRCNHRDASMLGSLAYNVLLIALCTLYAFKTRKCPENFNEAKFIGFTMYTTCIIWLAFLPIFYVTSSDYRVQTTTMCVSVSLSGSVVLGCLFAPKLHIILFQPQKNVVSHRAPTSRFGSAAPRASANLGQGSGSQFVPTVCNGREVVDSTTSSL

B1: SNAP-mGluR3 without an HA tag (receptor)
chain: LGDHNFMRREIKIEGDLVLGGLFPINEKGTGTEECGRINEDRGIQRLEAMLFAIDEINKDNYLLPGVKLGVHILDTCSRDTYALEQSLEFVRASLTKVDEAEYMCPDGSYAIQENIPLLIAGVIGGSYSSVSIQVANLLRLFQIPQISYASTSAKLSDKSRYDYFARTVPPDFYQAKAMAEILRFFNWTYVSTVASEGDYGETGIEAFEQEARLRNICIATAEKVGRSNIRKSYDSVIRELLQKPNARVVVLFMRSDDSRELIAAANRVNASFTWVASDGWGAQESIVKGSEHVAYGAITLELASHPVRQFDRYFQSLNPYNNHRNPWFRDFWEQKFQCSLQNKRNHRQVCDKHLAIDSSNYEQESKIMFVVNAVYAMAHALHKMQRTLCPNTTKLCDAMKILDGKKLYKEYLLKINFTAPFNPNKGADSIVKFDTFGDGMGRYNVFNLQQTGGKYSYLKVGHWAETLSLDVDSIHWSRNSVPTSQCSDPCAPNEMKNMQPGDVCCWICIPCEPYEYLVDEFTCMDCGPGQWPTADLSGCYNLPEDYIKWEDAWAIGPVTIACLGFLCTCIVITVFIKHNNTPLVKASGRELCYILLFGVSLSYCMTFFFIAKPSPVICALRRLGLGTSFAICYSALLTKTNCIARIFDGVKNGAQRPKFISPSSQVFICLGLILVQIVMVSVWLILETPGTRRYTLPEKRETVILKCNVKDSSMLISLTYDVVLVILCTVYAFKTRKCPENFNEAKFIGFTMYTTCIIWLAFLPIFYVTSSDYRVQTTTMCISVSLSGFVVLGCLFAPKVHIVLFQPQKNVVTHRLHLNRFSVSGTATTYSQSSASTYVPTVCNGREVLDSTTSSL
modifications: SNAP tag labeled with SBG-JF646
stoichiometry N [1]: 1 | stoichiometry N [2]: 1
